Where a chain is given by its changes, count along the chain named. Names may count otherwise. Values belong to the binder of their own block, whether it stands above or below them.
Key:
[1] = biological target: T1, Human LRRC15 Protein, His Tag (Acro Biosystems) (human, UniProt Q8TF66 22-538, limits assumed); test: BLI; dissociation pH 7.4 black, pH 5.4 grey [2/2); D00020 FIG. 4B (2/2]
T1 construct: not shown: His tag
T1 sequence (looked up): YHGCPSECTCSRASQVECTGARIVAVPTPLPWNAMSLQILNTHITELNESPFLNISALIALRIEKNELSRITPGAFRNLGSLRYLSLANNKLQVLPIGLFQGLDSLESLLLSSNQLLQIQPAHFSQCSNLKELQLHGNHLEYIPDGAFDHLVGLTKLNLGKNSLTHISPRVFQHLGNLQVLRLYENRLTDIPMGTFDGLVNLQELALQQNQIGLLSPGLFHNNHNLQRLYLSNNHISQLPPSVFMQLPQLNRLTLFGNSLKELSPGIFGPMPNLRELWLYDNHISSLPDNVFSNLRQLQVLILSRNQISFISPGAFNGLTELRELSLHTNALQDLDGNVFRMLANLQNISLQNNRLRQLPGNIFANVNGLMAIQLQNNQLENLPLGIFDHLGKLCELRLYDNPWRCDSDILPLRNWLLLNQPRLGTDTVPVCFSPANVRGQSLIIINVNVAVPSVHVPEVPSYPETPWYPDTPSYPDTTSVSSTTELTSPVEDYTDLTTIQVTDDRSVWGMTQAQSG
Method: Desirable mutations were transferred to a humanized framework (humanized, MYT 8387-8411). After allowing for four days of protein expression, cell culture supernatants were collected, quantified by SDS-PAGE analysis, and the pH dependence of the variant was evaluated using biolayer interferometry (BLI) on an Octet RED 96e instrument. Briefly, cell culture supernatants were diluted based on qualitative expression level of the variant determined by visual examination of SDS-PAGE gels, 5 μL of cell culture supernatant was diluted into 195 μL of 1×PBST, pH 7.4 for high expressors, 25 μL of cell culture supernatant was diluted into 175 μL of 1×PBST, pH 7.4 for medium expressors and 100 μL of cell culture supernatant was diluted into 100 μL of 1×PBST, pH 7.4 for low expressors for loading onto the sensor tips. The resulting diluted supernatants were then captured on an anti-human Fc sensor (Forte Bio). A baseline was established using 1×PBST (50 mM Potassium Phosphate Buffer+150 mM NaCl+0.05% Tween 20) pH 7.4, and the […] was associated with 50 nM of LRRC15 (Human LRRC15 Protein, His Tag, Acro Biosystems) in 1×PBST pH 7.4 for 120 sec to generate an association curve. In the dissociation phase, the antibody-antigen complex on the sensor was exposed to 1×PBST pH 7.4 or pH 5.4, for 300 sec. Association and dissociation phase curves were examined for the starting ABPC antibody (with no substitutions) and each corresponding antibody variant at pH 5.4 and pH 7.4 to inform on two criteria: a) enhanced dissociation (i.e., higher koff values) at pH 5.4 due to histidine substitution compared to the starting ABPC, (with no substitutions), and b) reduced dissociation at pH 7.4 (i.e., lower koff values) compared to pH 5.4 in the antibody variant itself and with the starting ABPC (with no substitutions).
The methods of Examples 9-10 were applied to RabMAb clone 29F1 (rabbit VH SEQ ID NO: 572 and VL SEQ ID NO: 578; and humanized VH SEQ ID NO: 576 and VL SEQ ID NO: 582).

[2] = biological target: T1, Human LRRC15 Protein, His Tag (Acro …); test: BLI; dissociation pH 7.4 black, pH 5.4 grey [2/2); D00026 FIG. 6B (2/2]
[3] = biological target: T2, LRRC15 on the surface of LRRC15+ cells (SAOS-2, U87MG) (UniProt Q8TF66 22-581, limits assumed); test: cell-based or functional assay
T2 sequence (looked up): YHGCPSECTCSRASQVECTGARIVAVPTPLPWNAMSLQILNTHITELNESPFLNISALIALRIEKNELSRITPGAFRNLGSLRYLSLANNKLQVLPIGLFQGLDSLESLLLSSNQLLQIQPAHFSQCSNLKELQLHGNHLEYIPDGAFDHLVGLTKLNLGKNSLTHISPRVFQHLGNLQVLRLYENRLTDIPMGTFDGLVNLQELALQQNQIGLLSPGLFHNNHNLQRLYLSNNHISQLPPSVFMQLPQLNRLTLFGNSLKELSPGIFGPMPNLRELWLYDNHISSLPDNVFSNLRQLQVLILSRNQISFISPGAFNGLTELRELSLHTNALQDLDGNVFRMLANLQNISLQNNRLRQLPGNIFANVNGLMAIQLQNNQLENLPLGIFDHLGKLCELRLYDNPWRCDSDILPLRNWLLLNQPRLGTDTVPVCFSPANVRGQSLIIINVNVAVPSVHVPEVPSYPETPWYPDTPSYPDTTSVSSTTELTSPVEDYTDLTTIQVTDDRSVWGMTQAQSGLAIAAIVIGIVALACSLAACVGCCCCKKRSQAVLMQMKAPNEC

[4] = biological target: T3, LRRC15 on LRRC15 positive cell lines SAOS2 and G292 (UniProt Q8TF66 22-581, limits assumed); test: cell binding on G292 cells (LRRC15 positive), pH 6.4
T3 construct: whole, on cells
T3 sequence (looked up): T2 sequence (looked up)

[5] = biological target: T3, LRRC15 on LRRC15 positive cell lines …; test: cell binding on G292 cells (LRRC15 positive), pH 7.4; parameters: unit not given here
[6] = biological target: T3, LRRC15 on LRRC15 positive cell lines …; test: cell binding on SAOS2 cells (LRRC15 positive), pH 6.4
[7] = biological target: T3, LRRC15 on LRRC15 positive cell lines …; test: cell binding on SAOS2 cells (LRRC15 positive), pH 7.4; parameters: unit not given here
[8] = biological target: T1, Human LRRC15 Protein, His Tag (Acro …); test: BLI (Octet), Ab on anti-human Fc sensor, LRRC15 associated at pH 7.4
Method: For each individual plot, antigen binding proteins were captured on anti-human Fc biosensors and associated with LRRC15 at pH 7.4. Dissociation was at pH 7.4 (black) or pH 5.4 (grey). Major X-axis ticks=100 seconds, with left dashed vertical line=0 seconds. Major Y-axis ticks=0.5 nm and octet plots are shown MYT5712 and MYT6080-MYT6121.
After allowing for a period of protein expression, cell culture supernatants are collected, quantified, and the pH dependence of the variant is evaluated using biolayer interferometry (BLI) or other methods known to the art. Briefly, cell culture supernatants are normalized to an antibody expression level of 50 μg/mL, and captured on an anti-human Fc sensor (Forte Bio). A baseline is established using 1× kinetics buffer (Forte Bio), and the sensor is associated with 100 nM of LRRC15 in 1×PBS at pH 7.4 for 300 sec to generate an association curve. In the dissociation phase, the antibody-antigen complex on the sensor is exposed to 1×PBS at either pH 5.5 or pH 7.4 for 300-500 sec. […]

B1: MYT9496 (antibody, V domains shown)
VH: EVQLVESGGGLVQPGGSLRLSCTASGFSFSSSHWICWVRQAPGKGLEWVGCIYAGSIGSTYYASWAKGRFTISRDTSKNTVYLQMNSLRAEDTAVYYCARADNDIYNYYFNLWGQGTLVTVSS
VL: EIVMTQSPSTLSASVGDRVIITCQASENIYNYLAWYQQKPGKAPKLLIYYASTLASGVPSRFSGSGSGAEFTLTISSLQPDDFATYYCQSGYVSKSSTFGQGTKLTVL
notes: also called hu29F1 VH P102D
- binding result [1]: binds

B2: MYT9506 (antibody, V domains shown)
VH: B1 VH with D102P, L112D
VL: B1 VL
notes: also called hu29F1 VH L112D
- binding result [1]: binds

B6: Samrotamab V205C ADC (antibody, part only; not given: V205C light chain and payload, V domains shown, part only)
VH: EVQLVQSGAEVKKPGASVKVSCKASGYKFSSYWIEWVKQAPGQGLEWIGEILPGSDTTNYNEKFKDRATFTSDTSINTAYMELSRLRSDDTAVYYCARDRGNYRAWFGYWGQGTLVTVSS
- 20 nM Efficacy (cytotoxicity of candidates against SAOS-2 cells) [3]: 16.4

B7: MYT5438, samrotamab ADC, Hinge Conjugated, DAR 2.0 (antibody, V domains shown)
VH: B6 VH
VL: DIQMTQSPSSLSASVGDRVTITCRASQDISNYLNWYQQKPGGAVKFLIYYTSRLHSGVPSRFSGSGSGTDYTLTISSLQPEDFATYFCQQGEALPWTFGGGTKVEIK
modifications: ADC: payload conjugated at the hinge, DAR 2.0 (payload not given) ; ADC: payload conjugated at hinge cysteines, DAR 2.0. The letters do not carry it.
notes: also called Sam; ADC, Hinge (DAR 2.0); Samrotamab WT
- Affinity [4]: 0.187
- Affinity [5]: 0.165
- Affinity [6]: 0.336
- Affinity [7]: 0.31

B8: MYT2737 (antibody, V domains shown)
VH: B6 VH
VL: B7 VL with Y50H
notes: also called Sam; LC His Variant; samrotamab LC His Var
- Affinity [4]: 0.676
- Affinity [5]: 0.528
- Affinity [6]: 0.92
- Affinity [7]: 0.84

B9: MYT3315 (antibody, V domains shown)
VH: EVQLVESGGGLVQPGGSLRLSCAVSGFSLTSYGVHWVRQATGKGLEWLGVIWAGGSTNYNSALMSRLTISKENAKSSVYLQMNSLRAGDTAMYYCATHMITEDYYGMDYWGQGTTVTVSS
VL: DIVMTQSPDSLAVSLGERATINCKSSQSLLNSRTRKNYLAWYQQKPGQSPKLLIYWASTRHSGVPDRFSGSGSGTDFTLTISSLQAEDVAVYYCKQSYNLPTFGGGTKVEIK
notes: also called hu139.10 LC His Variant; hu139.10 LC His Var
- Affinity [4]: 0.251
- Affinity [5]: 0.155
- Affinity [6]: 0.398
- Affinity [7]: 0.296

The remaining lines, values ahead:

- binding result [2]: binds
B3: MYT9726 (antibody, V domains shown)
VH: B1 VH with D102P, L112E
VL: B1 VL
notes: also called hu29F1 VH L112E

- binding result [1]: binds
B4: MYT9498 (antibody, V domains shown)
VH: B1 VH with D102P, D104A
VL: B1 VL
notes: also called hu29F1 VH D104A

- binding result [1]: binds
B5: MYT9505 (antibody, V domains shown)
VH: B1 VH with D102P, N111D
VL: B1 VL
notes: also called hu29F1 VH N111D

- binding result [8]: no binding (tested: 50 nM)
B10: MYT8511 (antibody, V domains shown)
VH: QQQLVESGGGLVKPGASLTLTCKASGHHFSGSYWICWVRQAPGKGLEWIGCHNGGSLDITYYASWAKGRFTISKASSTTVTLQKTSLTAADTATYFCASDTSYTAYGNFYFNLWGPGTLVTVSS
VL: AQVLTQTASPVSAAVGGTVTINCQSSQSVLNNNWLAWYQQKPGQPPKLLIYDASSLASGVPSRFKGSGSGTQFTLTISDLESDDAATYYCQGEFSCGSADCNAFGGGTEVVVKG
notes: Rabbit 24D9 VH combination variant; also called 24D9 VH combo F27H, S28H, I52H

Reference: patent publication US20250352661A1 (MYTHIC THERAPEUTICS, published 2025)
